Test results: patent US6509033

Molecular target: 'Empty' HLA-DR1 purified from insect cells expressing recombinant DR1 cDNA (human)

B1: Invariant Chain (Ii) 98-121 (peptide)
peptide: LPKPPKPVSKMRMATPLLMQALPM
modifications: not checked
Ki: 33 nM
